US20190307836A1 (Bicycle, published 2019)
Starred links: 1 amine or outer side, 2 acyl side, 3 side chain; linkers in the order of their positions; H or OH if unused. Positions of bridges follow the written chain, without caps; N, C: chain ends. Non-standard residues stand in square brackets, D forms with d. Chains are numbered I, II in the order given. No end group written: not given here. *: point of attachment. TATA = O=C(CC[*:1])N1CN(C(=O)CC[*:2])CN(C(=O)CC[*:3])C1; 1Nal = N[C@@H](Cc1cccc2ccccc12)C(=O)O; Hyp = O=C(O)[C@@H]1C[C@@H](O)CN1; hArg = N=C(N)NCCCC[C@H](N)C(=O)O; tBuAla = CC(C)(C)C[C@H](N)C(=O)O; Nle = CCCC[C@H](N)C(=O)O; Pent4ynoyl = C#CCCC(=O)*; Dap = NC[C@H](N)C(=O)O; βAla = NCCC(=O)O; Sar = CNCC(=O)O

T1: Human Nectin-4 (residues Gly32-Ser349; NCBI RefSeq: NP_112178.2) with C-terminal FLAG tag (human, UniProt Q96NY8 32-349, randomly biotinylated with EZ-Link Sulfo-NHS-LC-LC-Biotin)
T1 construct: range 32-349; also called human Nectin-4 protein; not shown: C-terminal FLAG tag
T1 sequence (looked up): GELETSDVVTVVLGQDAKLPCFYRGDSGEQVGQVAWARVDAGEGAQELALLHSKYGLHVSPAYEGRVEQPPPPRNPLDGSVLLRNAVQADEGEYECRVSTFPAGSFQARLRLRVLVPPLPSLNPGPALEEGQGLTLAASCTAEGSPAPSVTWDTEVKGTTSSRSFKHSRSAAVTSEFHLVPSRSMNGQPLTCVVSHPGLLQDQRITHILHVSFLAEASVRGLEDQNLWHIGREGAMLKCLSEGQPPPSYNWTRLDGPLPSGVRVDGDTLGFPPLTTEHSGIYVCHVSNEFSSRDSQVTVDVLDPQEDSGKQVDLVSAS

B1: heterotandem bicyclic peptide complex BCY10572 (peptide)
peptide 1: CP[1Nal][dD]CM[hArg]DWSTP[Hyp]WC
peptide 2: Ac-C[tBuAla]PE[dK](Pent4ynoyl)PYCFADPY[Nle]CA
modifications: linker I:1-I:5-I:15, II:1-II:8-II:15 via TATA; not fully specified (C-terminus, bridges); also: chains joined by PEG5 linker on chain 1 N-terminus, triazole to D-Lys(PYA)
B2: heterotandem bicyclic peptide complex BCY10000 (peptide)
peptide 1: {Pent4ynoyl-βAla}-[Sar][Sar][Sar][Sar][Sar][Sar][Sar][Sar][Sar][Sar]CP[1Nal][dD]CM[hArg]DWSTP[Hyp]WC
peptide 2: Ac-C[tBuAla]PE[dA]PYCFADPY[Nle]C[Dap]
modifications: linker I:11-I:15-I:25, II:1-II:8-II:15 via TATA; not fully specified (C-terminus); numbers in words are those of the source; also: linker to a chain's N/C-terminus via PEG12
B3: heterotandem bicyclic peptide complex BCY8943 (peptide)
peptide 1: VGPCLWDPTPCANLHLXC
peptide 2: ACIEEGQYCFADPYXC
modifications: BCY7732: N-terminal acetyl; Nle12; C-terminal Dap (diaminopropionic acid) bearing the linker; Ci, Cii, Ciii on TATA scaffold; BCY8941: N-terminal [PYA]-[B-Ala]-[Sar10]- (linker on PYA); HArg12; Ci, Cii, Ciii on TATA scaffold
B4: heterotandem bicyclic peptide complex BCY7985 (peptide)
peptide 1: AXDCXLVNPLCLHPDWXC
peptide 2: ACIEEGQYCFADPYXC
modifications: BCY7732: N-terminal acetyl; Nle12; C-terminal Dap (diaminopropionic acid) bearing the linker; Ci, Cii, Ciii on TATA scaffold; BCY6169: N-terminal [PYA]-[B-Ala]-[Sar10]- (linker on PYA); HArg in the A-[HArg]-D extension; HyP1, dD10, HArg12; Ci, Cii, Ciii on TATA scaffold
notes: also called EphA2-CD137 heterotandem BCY7985
B5: heterotandem bicyclic peptide complex BCY8942 (peptide)
peptide 1: AXDCXLVNPLCLHPDWXC
peptide 2: ACIEEGQYCFADPYXC
modifications: BCY8045: N-terminal acetyl; D-Ala8, Nle12; C-terminal Dap (diaminopropionic acid) bearing the linker; Ci, Cii, Ciii on TATA scaffold; BCY6169: N-terminal [PYA]-[B-Ala]-[Sar10]- (linker on PYA); HArg in the A-[HArg]-D extension; HyP1, dD10, HArg12; Ci, Cii, Ciii on TATA scaffold
B6: heterotandem bicyclic peptide complex BCY9173 (peptide)
peptide 1: {Pent4ynoyl-βAla}-[Sar][Sar][Sar][Sar][Sar][Sar][Sar][Sar][Sar][Sar]A[hArg]DC[Hyp]LVNPLCLHP[dD]W[hArg]C
peptide 2: Ac-C[tBuAla]PE[dA]PYCFADPY[Nle]C[Dap]
modifications: linker I:14-I:21-I:28, II:1-II:8-II:15 via TATA; numbers in words are those of the source; also: heterotandem: PYA of chain 1 linked via PEG12 to C-terminal Dap of chain 2
B7: heterotandem bicyclic peptide complex BCY8854 (peptide)
peptide 1: CPXDCMXDWSTPXWC
peptide 2: ACIEEGQYCFADPYXC
modifications: BCY7732: N-terminal acetyl; Nle12; C-terminal Dap (diaminopropionic acid) bearing the linker; Ci, Cii, Ciii on TATA scaffold; BCY8846: N-terminal [PYA]-[B-Ala]-[Sar10]- (linker on PYA); 1Nal2, dD3, HArg5, HyP11; Ci, Cii, Ciii on TATA scaffold
B8: heterotandem bicyclic peptide complex BCY10571 (peptide)
peptide 1: CP[1Nal][dD]CM[hArg]DWSTP[Hyp]WC
peptide 2: Ac-C[tBuAla]PK(Pent4ynoyl)[dA]PYCFADPY[Nle]CA
modifications: linker I:1-I:5-I:15, II:1-II:8-II:15 via TATA; not fully specified (C-terminus, bridges); also: chains joined by PEG5 linker on chain 1 N-terminus, triazole to K(PYA)
B9: heterotandem bicyclic peptide complex BCY9759 (peptide)
peptide 1: CPXDCMXDWSTPXWC
peptide 2: ACIEEGQYCFADPYXC
modifications: BCY7732: N-terminal acetyl; Nle12; C-terminal Dap (diaminopropionic acid) bearing the linker; Ci, Cii, Ciii on TATA scaffold; BCY8116: linker on N-terminus; 1Nal2, dD3, HArg5, HyP11; Ci, Cii, Ciii on TATA scaffold
B10: heterotandem bicyclic peptide complex BCY9351 (peptide)
peptide 1: CPXDCMXDWSTPXWC
peptide 2: ACIEEGQYCFADPYXC
modifications: BCY8045: N-terminal acetyl; D-Ala8, Nle12; C-terminal Dap (diaminopropionic acid) bearing the linker; Ci, Cii, Ciii on TATA scaffold; BCY8846: N-terminal [PYA]-[B-Ala]-[Sar10]- (linker on PYA); 1Nal2, dD3, HArg5, HyP11; Ci, Cii, Ciii on TATA scaffold
B11: heterotandem bicyclic peptide complex BCY9350 (peptide)
peptide 1: CPXDCMXDWSTPXWC
peptide 2: ACIEEGQYCFADPYXC
modifications: BCY7732: N-terminal acetyl; Nle12; C-terminal Dap (diaminopropionic acid) bearing the linker; Ci, Cii, Ciii on TATA scaffold; BCY11942: N-terminal [PYA]-[B-Ala]-[Sar10]- (linker on PYA); 1Nal2, dD3, HArg5, dW7, HyP11, dW12; Ci, Cii, Ciii on TATA scaffold
B12: heterotandem bicyclic peptide complex BCY9758 (peptide)
peptide 1: AXDCXLVNPLCLHPDWXC
peptide 2: ACIEEGQYCFADPYXC
modifications: BCY7732: N-terminal acetyl; Nle12; C-terminal Dap (diaminopropionic acid) bearing the linker; Ci, Cii, Ciii on TATA scaffold; BCY6099: N-terminal [B-Ala]-[Sar10]- (linker on N-terminus); HArg in the A-[HArg]-D extension; HyP1, dD10, HArg12; Ci, Cii, Ciii on TATA scaffold

Assays:
[1] = molecular target: CD137 on human PBMC (anti-CD3 stimulated) (human, UniProt Q07011 24-255); experiment: cell-based or functional assay
[2] = molecular target: T2, Recombinant human CD137 (R&D systems) (human, UniProt Q07011 24-186, biotinylated with EZ-Link Sulfo-NHS-LC-LC-Biotin); experiment: SPR (Biacore), biotinylated human CD137 on streptavidin chip
T2 construct: Bought protein; also called human CD137 protein; TNFRSF9
Method: The protein was desalted to remove uncoupled biotin using spin columns into PBS.
For analysis of peptide binding, a Biacore T200 or a Biacore 3000 instrument was used with a XanTec CMD500D chip. Streptavidin was immobilized on the chip using standard amine-coupling chemistry at 25° C. with HBS-N (10 mM HEPES, 0.15 M NaCl, pH 7.4) as the running buffer. Briefly, the carboxymethyl dextran surface was activated with a 7 min injection of a 1:1 ratio of 0.4 M 1-ethyl-3-(3-dimethylaminopropyl) carbodiimide hydrochloride (EDC)/0.1 M N-hydroxy succinimide (NHS) at a flow rate of 10 μl/min. For capture of streptavidin, the protein was diluted to 0.2 mg/ml in 10 mM sodium acetate (pH 4.5) and captured by injecting 120 μl of onto the activated chip surface. Residual activated groups were blocked with a 7 min injection of 1 M ethanolamine (pH 8.5) and biotinylated CD137 captured to a level of 270-1500 RU. Buffer was changed to PBS/0.05% Tween 20 and a dilution series of the peptides was prepared in this buffer with a final DMSO concentration of 0.5%. The top peptide concentration was 500 nM with 6 further 2-fold or 3-fold dilutions. The SPR analysis was run at 25° C. at a flow rate of 90 μl/min with 60 seconds association and 900 seconds dissociation. After each cycle a regeneration step (10 μl of 10 mM glycine pH 2) was employed. Data were corrected for DMSO excluded volume effects as needed. All data were double-referenced for blank injections and reference surface using standard processing procedures and data processing and kinetic fitting were performed using Scrubber software, version 2.0c (BioLogic Software). Data were fitted using simple 1:1 binding model allowing for mass transport effects where appropriate.

[3] = molecular target: CD137 expressed on cells (CHO cells expressing CD137); Jurkat cells of the Promega CD137 luciferase reporter … (UniProt Q07011 24-255, limits assumed); experiment: cell-based or functional assay
[4] = molecular target: T1, Human Nectin-4 (residues Gly32-Ser349; …); experiment: SPR (Biacore 3000), biotinylated human Nectin-4 on streptavidin chip
Method: Streptavidin was immobilized on the chip using standard amine-coupling chemistry at 25° C. with HBS-N (10 mM HEPES, 0.15 M NaCl, pH 7.4) as the running buffer. […] Buffer was changed to PBS/0.05% Tween 20 and a dilution series of the peptides was prepared in this buffer with a final DMSO concentration of 0.5%. […] Data were corrected for DMSO excluded volume effects. All data were double-referenced for blank injections and reference surface using standard processing procedures and data processing and kinetic fitting were performed using Scrubber software, version 2.0c (BioLogic Software). Data were fitted using simple 1:1 binding model allowing for mass transport effects where appropriate.

human EphA2 protein = molecular target: T3, human EphA2 protein (human, UniProt P29317 25-534, limits assumed, biotinylated with EZ-Link Sulfo-NHS-LC-Biotin); experiment: SPR (Biacore T200), biotinylated human EphA2 on streptavidin chip
T3 construct: Construct not described
Method: Streptavidin was immobilized on the chip using standard amine-coupling chemistry at 25° C. with HBS-N (10 mM HEPES, 0.15 M NaCl, pH 7.4) as the running buffer. Briefly, the carboxymethyl dextran surface was activated with a 7 min injection of a 1:1 ratio of 0.4 M 1-ethyl-3-(3-dimethylaminopropyl) carbodiimide hydrochloride (EDC)/0.1 M N-hydroxy succinimide (NHS) at a flow rate of 10 μl/min. […] Data were corrected for DMSO excluded volume effects. All data were double-referenced for blank injections and reference surface using standard processing procedures and data processing and kinetic fitting were performed using Scrubber software, version 2.0c (BioLogic Software). Data were fitted using simple 1:1 binding model allowing for mass transport effects where appropriate.

[5] = molecular target: CD137 expressed on cells (CHO cells expressing CD137; Jurkat cells of the Promega CD137 luciferase reporter assay) (UniProt Q07011); experiment: cell-based or functional assay
Chain of CD137 expressed on cells (CHO cells expressing CD137; Jurkat cells of the Promega CD137 luciferase reporter assay) (Q07011 24-255 limits assumed): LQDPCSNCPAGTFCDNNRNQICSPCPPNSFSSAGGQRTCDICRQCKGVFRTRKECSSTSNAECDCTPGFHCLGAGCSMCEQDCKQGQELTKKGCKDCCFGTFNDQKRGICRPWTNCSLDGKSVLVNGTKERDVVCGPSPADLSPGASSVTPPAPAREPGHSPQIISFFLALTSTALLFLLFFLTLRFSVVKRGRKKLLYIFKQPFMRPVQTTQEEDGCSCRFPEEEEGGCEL

T3 sequence (P29317 25-534 limits assumed): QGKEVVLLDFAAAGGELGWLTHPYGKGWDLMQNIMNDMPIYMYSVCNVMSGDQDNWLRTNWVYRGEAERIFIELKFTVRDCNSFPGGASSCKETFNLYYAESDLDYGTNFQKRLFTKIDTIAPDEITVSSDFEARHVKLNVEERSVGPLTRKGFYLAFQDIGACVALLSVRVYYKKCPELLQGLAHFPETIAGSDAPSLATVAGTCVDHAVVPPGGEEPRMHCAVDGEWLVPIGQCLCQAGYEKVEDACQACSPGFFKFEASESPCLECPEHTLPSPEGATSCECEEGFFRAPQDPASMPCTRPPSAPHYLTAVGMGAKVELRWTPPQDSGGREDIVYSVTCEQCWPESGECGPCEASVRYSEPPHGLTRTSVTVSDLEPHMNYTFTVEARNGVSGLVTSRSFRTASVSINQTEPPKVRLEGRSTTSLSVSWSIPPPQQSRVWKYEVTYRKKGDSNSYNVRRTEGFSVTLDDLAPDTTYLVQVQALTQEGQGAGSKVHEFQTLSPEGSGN
Chain of CD137 on human PBMC (anti-CD3 stimulated) (Q07011 24-255): as the sequence (Q07011 24-255 limits assumed) above
Chain of CD137 expressed on cells (CHO cells expressing CD137); Jurkat cells of the Promega CD137 luciferase reporter … (Q07011 24-255 limits assumed): as above

Binder | EC50 (nM), IFN-γ secretion, human PBMC co-culture with 4T1-D02(Nectin4+) [1] [nM] | max IFN-γ (pg/ml), human PBMC co-culture with 4T1-D02(Nectin4+) [1] [pg/mL] | Kd [2] [nM] | Kd [4] [nM] | Kd (human EphA2 protein) [nM] | other results
B1 | 0.25 | 17900 | 5 | – | – | –
B2 | 0.21 | 19600 | 6.19 | 2.26 | – | EC50 (nM), CD137 reporter assay, co-culture with H1376 (Nectin4) [3]: 0.58 nM
B3 | – | – | 156 | – | – | Fold Induction over Background, CD137 reporter assay, co-culture with PC3 (EphA2) [3]: < 2 fold
B4 | – | – | 143 | – | 2 | EC50 (nM), CD137 reporter assay, co-culture with SC-OV-3 (EphA2) [3]: 4 nM; Fold Induction over Background, CD137 reporter assay, co-culture with SC-OV-3 (EphA2) [3]: 15 fold
B5 | – | – | 853 | – | 1.7 | Fold Induction over Background, CD137 reporter assay, co-culture with PC3 (EphA2) [5]: < 2 fold
B6 | – | – | 7.98 | – | 2.1 | EC50 (nM), CD137 reporter assay, co-culture with SC-OV-3 (EphA2) [3]: 0.94 nM; Fold Induction over Background, CD137 reporter assay, co-culture with SC-OV-3 (EphA2) [3]: 21 fold
B7 | 0.89 | 16000 | 108 | 2.76 | – | EC50 (nM), CD137 reporter assay, co-culture with H1376 (Nectin4) [3]: 1.2 nM
B8 | 0.44 | 18300 | 12 | – | – | –
B9 | – | – | 44.3 | 2.14 | – | EC50 (nM), CD137 reporter assay, co-culture with H1376 (Nectin4) [3]: 2.7 nM
B10 | – | – | 3640 | 2.47 | – | Fold Induction over Background, CD137 reporter assay, co-culture with H1376 (Nectin4) [5]: < 2 fold
B11 | – | – | 69.4 | – | – | Fold Induction over Background, CD137 reporter assay, co-culture with H1376 (Nectin4) [5]: < 2 fold
B12 | – | – | 189 | – | 1.5 | EC50 (nM), CD137 reporter assay, co-culture with SC-OV-3 (EphA2) [3]: 1.2 nM; Fold Induction over Background, CD137 reporter assay, co-culture with SC-OV-3 (EphA2) [3]: 7 fold
